Assay results as given in patent US20120322150A1 (CARNEGIE INSTITUTION OF WASHINGTON, published 2012).

T1: BSL1 fused C-terminal half (cYFP) of yellow fluorescence protein (Arabidopsis, UniProt Q8L7U5 1-881)
T1 construct: BiFC construct; also called BSL1-cYFP; not shown: C-terminal half of YFP (cYFP)
T1 sequence: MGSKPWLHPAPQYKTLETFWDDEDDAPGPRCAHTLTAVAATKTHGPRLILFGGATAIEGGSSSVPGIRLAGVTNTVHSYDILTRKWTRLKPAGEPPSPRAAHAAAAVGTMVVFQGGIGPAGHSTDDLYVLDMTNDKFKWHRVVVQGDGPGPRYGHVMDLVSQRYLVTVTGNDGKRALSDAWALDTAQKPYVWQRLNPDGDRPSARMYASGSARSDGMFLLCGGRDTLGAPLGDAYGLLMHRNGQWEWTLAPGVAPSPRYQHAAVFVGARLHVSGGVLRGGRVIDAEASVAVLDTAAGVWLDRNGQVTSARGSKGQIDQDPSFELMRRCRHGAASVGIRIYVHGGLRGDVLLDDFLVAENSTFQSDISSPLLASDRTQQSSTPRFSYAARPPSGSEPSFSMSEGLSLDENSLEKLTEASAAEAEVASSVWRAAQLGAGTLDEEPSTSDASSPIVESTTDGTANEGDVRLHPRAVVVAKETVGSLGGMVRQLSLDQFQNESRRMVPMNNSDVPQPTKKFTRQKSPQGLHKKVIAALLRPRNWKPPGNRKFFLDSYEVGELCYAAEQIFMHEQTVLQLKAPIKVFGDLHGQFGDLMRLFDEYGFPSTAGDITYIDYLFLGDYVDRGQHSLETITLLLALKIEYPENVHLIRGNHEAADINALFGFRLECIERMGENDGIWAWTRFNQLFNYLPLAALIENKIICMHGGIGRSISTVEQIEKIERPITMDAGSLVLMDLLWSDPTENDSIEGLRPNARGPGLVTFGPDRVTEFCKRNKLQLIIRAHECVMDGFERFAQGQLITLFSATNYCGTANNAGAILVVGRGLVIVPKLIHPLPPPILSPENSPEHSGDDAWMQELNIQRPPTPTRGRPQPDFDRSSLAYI


Experiments:
MBP-BSU1 [1] = molecular target: T2, MBP-BSU1 (Arabidopsis, UniProt Q9LR78 1-793); experiment: overlay blot: GST fusions on membrane probed with MBP-BSU1 and anti-MBP antibody
T2 construct: Recombinant fusion used as probe in overlay (far-western) blots and in phosphatase assays; also called BSU1 from E. coli
Method: To test interaction of BSU1 with BIN2 or bin2-1 in vitro, a gel blot separating GST, GST-BIN2, GSTbin2-1 was incubated with 20 μg MBP-BSU1 in 5% non-fat dry milk/PBS buffer and washed four times. The blot was then probed with a polyclonal anti-MBP antibody. In the case of BSU1 overlay to BSK1, GST-BRI1-K, GST-BAK1-K and GST-BSK1 were separated by SDS-PAGE. To prepare phosphorylated BSK1, GST-BSK1 was incubated with GST-BRI1-K and 100 μM ATP in the kinase buffer for 2 hrs before SDS-PAGE. The blot was sequentially probed with MBP-BSU1 and a monoclonal anti-MBP antibody (New England Biolab, Beverly, Mass.).

[2] = molecular target: T3, BSU1 fused to C-terminal half (cYFP) of YFP (Arabidopsis, UniProt Q9LR78 1-793); experiment: BiFC in tobacco cells
T3 construct: BiFC construct in tobacco leaf epidermal cells, with BIN2-nYFP or bin2-1-nYFP; also called BSU1-cYFP; not shown: C-terminal half of YFP (cYFP)
Text: (§1) GST, GST-BIN2 and GST-bin2-1 were separated by SDS-PAGE and blotted onto nitrocellulose membrane. The blot was probed sequentially with MBP-BSU1 and anti-MBP antibody (upper) and then stained with Ponceau S (lower). […] The protein extracts of the tobacco leaves transiently transformed with the indicated constructs were immunoprecipitated with anti-GFP antibody, and the immunoblot was probed with anti-myc and anti-GFP antibody. […] The indicated constructs were transformed into tobacco leaf epidermal cells. Bright spots in BIN2-nYFP+cYFP are chloroplast auto-fluorescence. […] Arabidopsis plants (F1) expressing BSU1-YFP or co-expressing BSU1-YFP and BIN2-myc were grown on the medium containing BR biosynthetic inhibitor, brassinazole (BRZ), for 10 days. The plants were treated with 10 μM MG-132 for 1 hr and then with 0.2 μM BL or mock solution for 15 min. Total protein extracts were immunoprecipitated with anti-myc antibodies, and the immunoblot was probed with anti-GFP and anti-myc antibodies.
(§2) Transformation by Agrobacterium infiltration, observations of subcellular localization and BiFC signal in tobacco or Arabidopsis were performed as described previously 5. Fluorescence of YFP was visualized by using a spinning-disk confocal microscope (Leica Microsystems, Heerbruag, Germany).

[3] = molecular target: T1, BSL1 fused C-terminal half (cYFP) of …; experiment: BiFC in tobacco cells
Text: as §1, §2

MBP-BSU1 [4] = molecular target: T2, MBP-BSU1; experiment: in vitro overlay blot, MBP-BSU1 probe, anti-MBP detection
Method: Total protein extracts obtained from Arabidopsis plants (F1) expressing BSU1 -YFP or co-expressing BSU1-YFP and BSK1-myc were immunoprecipitated with anti-myc, and the immunoblot was probed with anti-GFP and anti-myc antibody. […] GST-BSK1 or GST-BSK1 S230A was incubated with GST-BRI1-K or GST for 2 hrs. […] In the presence of BR (+BR), BR binding to the extracellular domain of BRI1 induces dissociation of BKI1 and association and inter-activation between BRI1 and BAKI. Activated BRI1 then phosphorylates BSK1, which in turn dissociates from the receptor complex and interacts with and presumably activate BSU1. BSU1 inactivates BIN2 by dephosphorylating its pTyr200, allowing accumulation of unphosphorylated BZR1/2, likely with help of a phosphatase that is yet to be identified. Unphosphorylated BZR1/2 accumulate in the nucleus and alter the expression of BR-target genes, leading to cellular and developmental responses. While individual representative protein is shown for each function, in Arabidopsis most of these components have about 2 to 5 homologous proteins (paralogs) that can contribute to the same or similar signaling function.
To test interaction of BSU1 with BIN2 or bin2-1 in vitro, a gel blot separating GST, GST-BIN2, GSTbin2-1 was incubated with 20 μg MBP-BSU1 in 5% non-fat dry milk/PBS buffer and washed four times. The blot was then probed with a polyclonal anti-MBP antibody. […]

T2 sequence (Q9LR78 whole entry, the tested form may be a part): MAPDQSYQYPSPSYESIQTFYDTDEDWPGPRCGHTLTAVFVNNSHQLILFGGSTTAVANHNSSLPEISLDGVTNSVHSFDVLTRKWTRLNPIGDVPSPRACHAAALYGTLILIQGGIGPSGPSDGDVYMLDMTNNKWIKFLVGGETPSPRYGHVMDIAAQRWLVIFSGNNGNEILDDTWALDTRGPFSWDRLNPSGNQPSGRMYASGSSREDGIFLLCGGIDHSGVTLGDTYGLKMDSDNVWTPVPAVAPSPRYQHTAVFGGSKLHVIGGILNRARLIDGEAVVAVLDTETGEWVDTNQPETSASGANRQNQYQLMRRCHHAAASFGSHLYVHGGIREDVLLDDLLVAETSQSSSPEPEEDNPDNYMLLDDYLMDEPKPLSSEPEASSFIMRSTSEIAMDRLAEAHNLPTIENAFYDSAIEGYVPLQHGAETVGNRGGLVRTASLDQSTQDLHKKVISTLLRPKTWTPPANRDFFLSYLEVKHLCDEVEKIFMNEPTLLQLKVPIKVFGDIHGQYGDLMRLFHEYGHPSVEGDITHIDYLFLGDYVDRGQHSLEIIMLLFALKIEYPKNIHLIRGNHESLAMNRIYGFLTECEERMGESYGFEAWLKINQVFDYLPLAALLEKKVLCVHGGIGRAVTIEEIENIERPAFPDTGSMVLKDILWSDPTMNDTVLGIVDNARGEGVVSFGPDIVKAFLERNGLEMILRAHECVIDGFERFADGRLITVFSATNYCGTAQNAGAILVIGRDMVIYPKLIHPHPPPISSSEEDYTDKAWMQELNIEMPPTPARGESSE
T3 sequence (Q9LR78 whole entry, the tested form may be a part): as above

Row | Binder | binding result (MBP-BSU1 [1]) | binding result (MBP-BSU1 [4]) | other results
1 | BIN2 fused to the N-terminal half (nYFP) of YFP (enzyme, Arabidopsis, UniProt Q39011 1-380, looked up, BiFC construct in tobacco cells; also called BIN2-nYFP; not shown: N-terminal half of YFP (nYFP)) MADDKEMPAAVVDGHDQVTGHIISTTIGGKNGEPKQTISYMAERVVGTGSFGIVFQAKCLETGETVAIKKVLQDRRYKNRELQLMRVMDHPNVVCLKHCFFSTTSKDELFLNLVMEYVPESLYRVLKHYSSANQRMPLVYVKLYMYQIFRGLAYIHNVAGVCHRDLKPQNLLVDPLTHQVKICDFGSAKQLVKGEANISYICSRFYRAPELIFGATEYTTSIDIWSAGCVLAELLLGQPLFPGENAVDQLVEIIKVLGTPTREEIRCMNPHYTDFRFPQIKAHPWHKIFHKRMPPEAIDFASRLLQYSPSLRCTALEACAHPFFDELREPNARLPNGRPFPPLFNFKQEVAGSSPELVNKLIPDHIKRQLGLSFLNQSGT |  |  | binding result [2]: binds; binding result [3]: binds
2 | GST-BSK1 (enzyme, Arabidopsis, UniProt Q944A7 1-512, looked up, also called full-length BSK1; not shown: GST (glutathione S-transferase) tag) MGCCQSLFSGDNPLGKDGVQPQPLSQNNHGGATTADNGGSGGASGVGGGGGGGGIPSFSEFSFADLKAATNNFSSDNIVSESGEKAPNLVYKGRLQNRRWIAVKKFTKMAWPEPKQFAEEAWGVGKLRHNRLANLIGYCCDGDERLLVAEFMPNDTLAKHLFHWENQTIEWAMRLRVGYYIAEALDYCSTEGRPLYHDLNAYRVLFDEDGDPRLSCFGLMKNSRDGKSYSTNLAYTPPEYLRNGRVTPESVTYSFGTVLLDLLSGKHIPPSHALDMIRGKNIILLMDSHLEGKFSTEEATVVVELASQCLQYEPRERPNTKDLVATLAPLQTKSDVPSYVMLGIKKQEEAPSTPQRPLSPLGEACSRMDLTAIHQILVMTHYRDDEGTNELSFQEWTQQMKDMLDARKRGDQSFREKDFKTAIDCYSQFIDVGTMVSPTVFGRRSLCYLLCDQPDAALRDAMQAQCVYPDWPTAFYMQSVALAKLNMNTDAADMLNEAAQLEEKRQRGGRGS | binds |  | 
3 | GST-BRI1-K (receptor, Arabidopsis, UniProt O22476 815-1196, looked up, domain: kinase domain; also called GST BR11-K; kinase domain of BRI1; not shown: GST (glutathione S-transferase) tag) REMRKRRRKKEAELEMYAEGHGNSGDRTANNTNWKLTGVKEALSINLAAFEKPLRKLTFADLLQATNGFHNDSLIGSGGFGDVYKAILKDGSAVAIKKLIHVSGQGDREFMAEMETIGKIKHRNLVPLLGYCKVGDERLLVYEFMKYGSLEDVLHDPKKAGVKLNWSTRRKIAIGSARGLAFLHHNCSPHIIHRDMKSSNVLLDENLEARVSDFGMARLMSAMDTHLSVSTLAGTPGYVPPEYYQSFRCSTKGDVYSYGVVLLELLTGKRPTDSPDFGDNNLVGWVKQHAKLRISDVFDPELMKEDPALEIELLQHLKVAVACLDDRAWRRPTMVQVMAMFKEIQAGSGIDSQSTIRSIEDGGFSTIEMVDMSIKEVPEGKL |  | no binding | 

The next lines start with results.

Row | binding result (MBP-BSU1 [1]) | binding result (MBP-BSU1 [4]) | Binder | other results
4 | binds |  | GST-BIN2 (enzyme, Arabidopsis, UniProt Q39011 1-380, looked up, phospho-tyrosine 200 (autophosphorylation site of BIN2, detected on GST-BIN2 from E. coli), Expressed and purified from E. coli; also called wild type GST-BIN2; not shown: GST (glutathione S-transferase) tag) MADDKEMPAAVVDGHDQVTGHIISTTIGGKNGEPKQTISYMAERVVGTGSFGIVFQAKCLETGETVAIKKVLQDRRYKNRELQLMRVMDHPNVVCLKHCFFSTTSKDELFLNLVMEYVPESLYRVLKHYSSANQRMPLVYVKLYMYQIFRGLAYIHNVAGVCHRDLKPQNLLVDPLTHQVKICDFGSAKQLVKGEANISYICSRFYRAPELIFGATEYTTSIDIWSAGCVLAELLLGQPLFPGENAVDQLVEIIKVLGTPTREEIRCMNPHYTDFRFPQIKAHPWHKIFHKRMPPEAIDFASRLLQYSPSLRCTALEACAHPFFDELREPNARLPNGRPFPPLFNFKQEVAGSSPELVNKLIPDHIKRQLGLSFLNQSGT | 
5 |  | no binding | GST-BAK1-K (receptor, Arabidopsis, UniProt Q94F62 247-615, looked up, domain: kinase domain; also called kinase domain of BAK1; not shown: GST (glutathione S-transferase) tag) AWWRRKKPQDHFFDVPAEEDPEVHLGQLKRFSLRELQVASDNFSNKNILGRGGFGKVYKGRLADGTLVAVKRLKEERTQGGELQFQTEVEMISMAVHRNLLRLRGFCMTPTERLLVYPYMANGSVASCLRERPESQPPLDWPKRQRIALGSARGLAYLHDHCDPKIIHRDVKAANILLDEEFEAVVGDFGLAKLMDYKDTHVTTAVRGTIGHIAPEYLSTGKSSEKTDVFGYGVMLLELITGQRAFDLARLANDDDVMLLDWVKGLLKEKKLEALVDVDLQGNYKDEEVEQLIQVALLCTQSSPMERPKMSEVVRMLEGDGLAERWEEWQKEEMFRQDFNYPTHHPAVSGWIIGDSTSQIENEYPSGPR | 
